{"source": "patent US20240174744A1", "about": "(SCIRHOM, published 2024)", "key": {"[1]": {"target": "T1, miR2-FL-WT-FLAG (mouse iRhom2 full length wild type C-terminally tagged with the triple-FLAG epitope) (mouse, UniProt Q80WQ6 1-827)", "T1 construct": "also called expressed by MEF-DKO-miR2-FL-WT-FLAG cells", "T1 sequence": "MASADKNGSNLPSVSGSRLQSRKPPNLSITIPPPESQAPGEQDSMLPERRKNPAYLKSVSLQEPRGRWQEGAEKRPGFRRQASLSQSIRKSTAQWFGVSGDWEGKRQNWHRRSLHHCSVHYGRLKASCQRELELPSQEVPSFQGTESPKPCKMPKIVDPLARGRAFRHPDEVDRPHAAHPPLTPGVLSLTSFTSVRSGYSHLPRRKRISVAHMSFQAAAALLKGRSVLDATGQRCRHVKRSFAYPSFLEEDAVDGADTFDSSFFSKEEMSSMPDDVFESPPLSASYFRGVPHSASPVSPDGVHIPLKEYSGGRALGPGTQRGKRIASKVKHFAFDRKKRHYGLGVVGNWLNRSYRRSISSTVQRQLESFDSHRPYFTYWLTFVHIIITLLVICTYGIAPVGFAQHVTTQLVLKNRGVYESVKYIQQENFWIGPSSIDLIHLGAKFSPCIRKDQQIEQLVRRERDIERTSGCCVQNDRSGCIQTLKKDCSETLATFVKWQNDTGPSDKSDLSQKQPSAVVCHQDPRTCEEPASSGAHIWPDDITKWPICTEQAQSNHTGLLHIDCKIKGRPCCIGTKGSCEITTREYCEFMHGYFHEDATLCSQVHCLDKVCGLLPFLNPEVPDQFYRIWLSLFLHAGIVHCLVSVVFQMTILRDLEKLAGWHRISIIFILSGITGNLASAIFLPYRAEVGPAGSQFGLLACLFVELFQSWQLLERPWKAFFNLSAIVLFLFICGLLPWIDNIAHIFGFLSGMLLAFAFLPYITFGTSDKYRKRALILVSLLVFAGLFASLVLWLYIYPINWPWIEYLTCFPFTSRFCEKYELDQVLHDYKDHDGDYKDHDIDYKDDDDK", "test": "FACS, MEF-DKO-miR2-FL-WT-FLAG cells", "description": "In brief, immortalized MEF-DKO-EV control cells, MEF-DKO-hiR2-FL-WT-FLAG cells and MEF-DKO-miR2-FL-WT-FLAG cells were harvested with 10 mM EDTA in PBS, washed and resuspended in FACS buffer (PBS, 3% FBS, 0.05% sodium azide), and seeded in Nunc U-bottom 96-well plates (Thermo Fisher Scientific, USA) at approximately 3×10⁵ cells per well. To pellet cells and remove supernatants, the plates were centrifuged at 1,500 rpm and 4° C. for 3 minutes. For primary staining, cells were resuspended in 100 μl per well of either FACS buffer alone (controls), mouse monoclonal anti-FLAG IgG (Sigma-Aldrich, USA) at 3 μg/ml FACS buffer or the antibodies of the present disclosure also at 3 μg/ml FACS buffer and incubated on ice for 1 hour. Afterwards, plates were centrifuged at 1,500 rpm and 4° C. for 3 minutes and washed twice with 200 μl per well of FACS buffer. For secondary staining, cells were spun down and resuspended in 100 μl per well of PE-conjugated goat anti-mouse IgG F(ab′)2 detection fragment (Dianova, Germany) diluted 1:100 in FACS buffer. Protected from light, the cell suspensions were incubated on ice for 1 hour. Plates were then centrifuged at 1,500 rpm and 4° C. for 3 minutes and washed three times with 200 μl per well of FACS buffer. Finally, cells were resuspended in 150 μl per well of FACS buffer and analyzed using a BD Accuri™ C6 Plus flow cytometer (Becton Dickinson, Germany)."}, "[2]": {"target": "T2, human iRhom2 (inactive rhomboid protein 2, isoform 1), endogenously expressed on human cells (human, UniProt Q6PJF5 1-856)", "T2 sequence": "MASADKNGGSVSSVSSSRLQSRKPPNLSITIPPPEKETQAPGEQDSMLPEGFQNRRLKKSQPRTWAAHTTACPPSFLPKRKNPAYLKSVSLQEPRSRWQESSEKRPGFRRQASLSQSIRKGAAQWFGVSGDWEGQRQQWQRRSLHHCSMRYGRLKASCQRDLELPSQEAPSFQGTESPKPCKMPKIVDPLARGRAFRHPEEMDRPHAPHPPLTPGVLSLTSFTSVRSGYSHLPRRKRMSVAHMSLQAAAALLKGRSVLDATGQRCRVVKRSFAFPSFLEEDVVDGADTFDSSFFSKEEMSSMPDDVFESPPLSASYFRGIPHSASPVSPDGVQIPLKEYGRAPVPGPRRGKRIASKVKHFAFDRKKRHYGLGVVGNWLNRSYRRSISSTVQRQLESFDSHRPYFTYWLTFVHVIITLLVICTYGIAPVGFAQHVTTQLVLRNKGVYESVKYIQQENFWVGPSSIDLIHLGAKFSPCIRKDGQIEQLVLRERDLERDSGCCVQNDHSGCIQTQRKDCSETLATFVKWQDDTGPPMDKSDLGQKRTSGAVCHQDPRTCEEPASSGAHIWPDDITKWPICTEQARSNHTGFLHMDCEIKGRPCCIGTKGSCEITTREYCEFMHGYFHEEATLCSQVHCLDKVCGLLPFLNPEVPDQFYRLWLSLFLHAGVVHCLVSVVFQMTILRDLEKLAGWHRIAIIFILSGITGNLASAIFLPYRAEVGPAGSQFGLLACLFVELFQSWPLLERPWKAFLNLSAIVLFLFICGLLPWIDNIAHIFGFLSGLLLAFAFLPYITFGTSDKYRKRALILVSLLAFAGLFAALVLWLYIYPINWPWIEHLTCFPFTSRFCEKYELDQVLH", "test": "cell-based or functional assay"}}, "data": [{"binder": "antibody 34 (antibody, V domains shown, Mouse IgG, kappa light chain; also called clone #34; m34) VH: QVTLKESGPGILQPSQTLSLTCSFSGFSLSTFSLGVGWIRQSSGKGLEWLAHIWWDDEKYYNPALKSRLTISKDTSKNQVFLKIANVDAADTATYYCARAYYSKSYYALDYWGQGTSVTVSS VL: DIQMTQSPSSLSASLGERVSLTCRASQEISGYLSWLQQKPDGTIKRLIYAASTLDSGVPKRFSGSRSGSDYSLAISSLESEDFADYYCLQYANFPFTFGSGTKLEIK", "values": [{"measurement": "binding result", "setting": "[1]", "value": "no binding (tested: 3 µg/ml)"}, {"measurement": "inhibition of LPS-induced release of TNFα from THP-1 cells, 10 µg/ml, antibody purified from hybridoma", "setting": "[2]", "value": 27.3, "unit": "% inhibition"}, {"measurement": "inhibition of LPS-induced release of TNFα from THP-1 cells, recombinant antibody", "setting": "[2]", "value": 73.8, "unit": "% inhibition"}, {"measurement": "inhibition of PMA-induced release of HB-EGF from THP-1 cells, 3 µg/ml", "setting": "[2]", "value": 64.2, "unit": "% inhibition"}, {"measurement": "inhibition of PMA-induced release of HB-EGF from U-937 cells", "setting": "[2]", "value": 98.2, "unit": "% inhibition"}, {"measurement": "inhibition of PMA-induced release of IL-6R from THP-1 cells, 1 µg/ml", "setting": "[2]", "value": 71.1, "unit": "% inhibition"}, {"measurement": "inhibition of PMA-induced release of IL-6R from U-937 cells, 1 µg/ml", "setting": "[2]", "value": 69.3, "unit": "% inhibition"}, {"measurement": "inhibition of PMA-induced release of IL-6R from U-937 cells, 3 µg/ml", "setting": "[2]", "value": 74.6, "unit": "% inhibition"}, {"measurement": "inhibition of PMA-induced release of TNFα from U-937 cells, 1 µg/ml", "setting": "[2]", "value": 68.6, "unit": "% inhibition"}, {"measurement": "inhibition of PMA-induced release of TNFα from U-937 cells, 3 µg/ml", "setting": "[2]", "value": 79.9, "unit": "% inhibition"}]}, {"binder": "antibody 46 (antibody, V domains shown, Mouse IgG, kappa light chain; also called clone #46) VH: QVTLKESGPGILQPSQTLSLTCSFSGFSLSTFGMGVGWIRQPSGKGLEWLAHIWWDDDNYYNQALKSRLTISKDNTKNQVFLNIANVDTADTATYYCARIRSYDYDVRYAMDYWGQGTSVTVSS VL: DIKMTQSPSSMYASLRERVTITCKASQDINSYLSWFQQKPGKSPKTLIYRANRLVDGVPSRFSGSGSGQDYSLTISSLEYEDLGIYYCQQYYEFPLTFGAGTRLELK", "values": [{"measurement": "binding result", "setting": "[1]", "value": "no binding (tested: 3 µg/ml)"}, {"measurement": "inhibition of LPS-induced release of TNFα from THP-1 cells, recombinant antibody", "setting": "[2]", "value": 36.1, "unit": "% inhibition"}]}, {"binder": "antibody 22 (antibody, V domains shown, Mouse IgG, kappa light chain; also called clone #22; m22) VH: QVTLKESGPGILQPSQTLSLTCSFSGFSLSTFGMGVGWIRQPSGKGLEWLAHIWWDDEKYYNSALKSRLTISKATSKNQVFLKIANVDTADTATYYCARISNYGSNYWYFNVWGTGTTVTVSS VL: QVVLTQSPALMSASPGEKVTMTCSAGSSVSYMYWYQQKPGSSPRVLIYDTSNLASGVPARFTGSGSGTSYSLTISRMEAEDAATYYCQQWNSYPLTFGAGTKLELK", "values": [{"measurement": "binding result", "setting": "[1]", "value": "no binding (tested: 3 µg/ml)"}, {"measurement": "inhibition of LPS-induced release of TNFα from PBMCs of healthy donors, 1 µg/ml", "setting": "[2]", "value": 72.8, "unit": "% inhibition"}, {"measurement": "inhibition of LPS-induced release of TNFα from THP-1 cells, 10 µg/ml, antibody purified from hybridoma", "setting": "[2]", "value": 78.8, "unit": "% inhibition"}, {"measurement": "inhibition of LPS-induced release of TNFα from THP-1 cells, recombinant antibody", "setting": "[2]", "value": 78.4, "unit": "% inhibition"}, {"measurement": "inhibition of LPS-induced release of TNFα from human macrophages of healthy donors", "setting": "[2]", "value": 78.8, "unit": "% inhibition"}, {"measurement": "inhibition of PMA-induced release of HB-EGF from PBMCs of healthy donors, 1 µg/ml", "setting": "[2]", "value": 56.5, "unit": "% inhibition"}, {"measurement": "inhibition of PMA-induced release of HB-EGF from THP-1 cells, 3 µg/ml", "setting": "[2]", "value": 77.7, "unit": "% inhibition"}, {"measurement": "inhibition of PMA-induced release of HB-EGF from U-937 cells", "setting": "[2]", "value": 101, "unit": "% inhibition"}, {"measurement": "inhibition of PMA-induced release of IL-6R from PBMCs of healthy donors, 1 µg/ml", "setting": "[2]", "value": 79.3, "unit": "% inhibition"}, {"measurement": "inhibition of PMA-induced release of IL-6R from THP-1 cells, 1 µg/ml", "setting": "[2]", "value": 67.4, "unit": "% inhibition"}, {"measurement": "inhibition of PMA-induced release of IL-6R from U-937 cells, 1 µg/ml", "setting": "[2]", "value": 74.5, "unit": "% inhibition"}, {"measurement": "inhibition of PMA-induced release of IL-6R from U-937 cells, 3 µg/ml", "setting": "[2]", "value": 79, "unit": "% inhibition"}, {"measurement": "inhibition of PMA-induced release of TGFα from PC3 cells, 1 µg/ml", "setting": "[2]", "value": 12.7, "unit": "% inhibition"}, {"measurement": "inhibition of PMA-induced release of TNFα from U-937 cells, 1 µg/ml", "setting": "[2]", "value": 86.1, "unit": "% inhibition"}, {"measurement": "inhibition of PMA-induced release of TNFα from U-937 cells, 3 µg/ml", "setting": "[2]", "value": 93.1, "unit": "% inhibition"}]}, {"binder": "antibody 57 (antibody, V domains shown, Mouse IgG, kappa light chain; also called clone #57) VH: QVTLKESGPGILQPSQTLSLTCSFSGFSLSTFGMGVGWIRQPSGKGLEWLAHIWWDDDKYYNPALKSRLTISKDTSKNQIFLKIANVDTADSATFYCARIENYGSNYWYFDVWGTGTTVTVSS VL: QIVLTQSPAIMSASPGEKVTMTCSASSSVSYMYWYQQKPGSSPRVLIYDTSNLASGVPVRFSGSGSGTSYSLTVSRMEAEDAATYYCQQWNSYPLTFGAGTKLELK", "values": [{"measurement": "binding result", "setting": "[1]", "value": "no binding (tested: 3 µg/ml)"}, {"measurement": "inhibition of LPS-induced release of TNFα from THP-1 cells, recombinant antibody", "setting": "[2]", "value": 59.7, "unit": "% inhibition"}]}]}
